Test results as given in patent US20100196361A1 (published 2010).

Biological target: T1, Tie1-Fc immobilized on a CM5 chip (species not stated)
T1 construct: also called immobilized Tie1-Fc
Assay: SPR, Tie1-Fc immobilized to the CM5 sensor chip, bivalent anti-Tie1 as analyte
Experimental: Affinity analysis of the Fab and IgGs was performed using surface plasmon resonance using a BIAcore 3000 instrument. For this analysis both dimeric (Tie1-Fc fusion protein) and monomeric (Tie1-HIS) versions of the extracellular domain of the Tie1 were used. The sensor chips used in these experiments were CM5 (dextran-coated) which allow immobilization of proteins to the chip via standard amine coupling chemistries. The concentration of flowed antibody was determined using a surface plasmon resonance based method. Using a high-density protein A sensor chip, under mass transport limited conditions, the response signal is dependent only on the concentration of the antibody in the sample under test. This approach allows a precise determination of the antibody concentration, a parameter important for accurate determination of the KD.

Kd: 0.2 nM
fold increase in affinity (against the anti-Tie1 Fab): > 10 fold
B1: DX-2220 (full length IgG1, germlined human anti-Tie1 antibody E3b) (antibody, V domains shown)
VH: EVQLLESGGGLVQPGGSLRLSCAASGFTFSMYGMVWVRQAPGKGLEWVSVISPSGGNTGYADSVKGRFTISRDNSKNTLYLQMNSLRAEDTAVYYCARAPRGYSYGYYYWGQGTLVTVSS
VL: DIQMTQSPSSLSASVGDRVTITCRASQGIGHYLAWYQQKPGKVPKLLIYTASTLQSGVPSRFSGSGSGTDFTLTISSLQPEDVATYYCQQFNSYPHTFGQGTRLEIKR
notes: Heavy and light chain frameworks germlined; also called E3b-IgG1; germlined E3b IgG1
